In article PMC6311707 one finds τoff (time constant of dark reversion from the membrane) and τon (time constant of light-induced membrane translocation) data, which are given here for one substance.

This assay addresses NtermRGS2-GFP-CIBN (R2helix-CIBN component of opto-RGS2, GFP-tagged). The experiment in a line: light-induced membrane translocation.

As to “CRY2-mCherry-(GGGGS)3-RGS2box (CRY2-R2box component of opto-RGS2)”, the τoff (time constant of dark reversion from the membrane) is 396 s and the τon (time constant of light-induced membrane translocation) came out at 19.7 s.
